Data published in patent US20130096281A1.

Biological target: [Ag] (UniProt P04626)
Assay: yeast display titration (flow cytometry); Lip2prepro leader, Sag1p fusion

Kd: 2.51 nM
Substance: preproA1-Herceptin scFv
